Molecular target: (His)6-Raf-1 protein (UniProt P04049)
Experiment: totally cell-free pull-down, anti-Raf-1 immunoblot, densitometry

B1: FLAG-HMK-IL-2Rβ chain containing only the proline rich C-terminal (CT+) (receptor, not shown: small tags and cut ends)
chain: QPLSGEDDAYCTFPSRDDLLLFSPSLLGGPSPPSTAPGGSGAGEERMPPSLQERVPRDWDPQPLGPPTPGVPDLVDFQPPPELVLREAGEEVPDAGPREGVSFPWSRPPGQGEFRALNARLPLNTDAYLSLQELQGQDPTHLV
B1 gave a % binding to Raf-1 proteins (of the positive control) of 0 to 10%.

— patent US20010016194A1, “COMPOUNDS THAT INHIBIT THE BINDING OF RAF-1 OR 14-3-3 PROTEINS TO THE BETA CHAIN OF IL-2 RECEPTOR, AND PHARMACEUTICAL COMPOSITIONS CONTAINING SAME” (priority 1999, published 2001)
